Results published in patent US20140011978A1 (EPFL TTO, published 2014).

Legend:
PDGF-AB = biological target: T1, PDGF-AB (UniProt P04085 87-211; P01127 82-190, limits assumed); test: ELISA, cytokine coated, Fg β15-66 in solution (methods as Example 3)
T1 construct: The name implies a heterodimer of A and B chains
Protocol: (§1) ELISA plates were coated with cytokines or BSA and further incubated with TNC III1-5 to analyze binding of TNC III1-5 to a wide variety of cytokines. […] A large amount of heparin (4 μM) impaired binding of TNC III1-5 to these cytokines. Results are depicted in FIG. 3. Method: 50 nM of cytokine was coated for (1 hr, 37° C.). After blocking with 2% BSA (1 hr, RT). 100 nM TNC III1-5 was applied in PBST (0.05% tween, 0.1% bovine serum albumin (BSA)) (1 hr, RT). TNC III1-5 was detected with horseradish peroxidase (HRP)-anti-HIS in PBST (1 hr, RT) and developed with 3,3′,5,5′-tetramethylbenzidine (TMB), a soluble colorimetric HRP […]. Addition of sulfuric acid stop solution changes the color to yellow, enabling accurate measurement of the intensity at 450 nm using a spectrophotometer or plate reader. […] Heparin (4 μM) was added to TNC III1-5 to test the effect of blocking the heparin binding site of TNC III1-5, which has been defined as domain TNC III5 (Weber, Zimmermann, et al., 1995).
(§2) ELISA plates were coated with cytokines or BSA and further incubated with Fg β15-66 to analyze binding of […] to a wide variety of cytokines. […] Results are depicted in FIG. 4. Method: The methods were analogous to those used in Example 3.

FGF-5 = biological target: T2, FGF-5 (UniProt P12034 21-268, limits assumed); test: as above
T2 sequence (looked up): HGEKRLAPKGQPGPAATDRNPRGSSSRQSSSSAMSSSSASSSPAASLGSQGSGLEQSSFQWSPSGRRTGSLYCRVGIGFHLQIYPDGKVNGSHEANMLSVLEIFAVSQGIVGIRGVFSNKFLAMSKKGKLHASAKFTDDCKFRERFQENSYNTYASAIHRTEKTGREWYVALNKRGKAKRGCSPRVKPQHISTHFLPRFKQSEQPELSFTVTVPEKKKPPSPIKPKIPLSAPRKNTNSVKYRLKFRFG
Protocol: as §1, §2

BMP-2/7 = biological target: T3, BMP-2/7 (UniProt P12643 283-396; P18075 293-431); test: as above
T3 construct: The name implies a BMP-2/BMP-7 heterodimer
Protocol: as §1, §2

TGF-β1 = TGF-β1 (UniProt P01137 279-390); test: SPR, Fg β15-66 on the chip, cytokine injected (methods as Example 5), Langmuir fit
Protocol: (§3) Surface plasmon resonance (SPR) was done to quantify the affinity of specific cytokines to TNC III1-5. […] Method: Surface plasmon resonance chips were functionalized with TNC III1-5 or BSA and cytokines were injected over the chips at different concentrations. The chips contained gold with free carboxyl groups that were activated to bind TNC III1-5 in one channel and BSA as a reference protein in another channel. The specific response of a cytokine to TNC III1-5 (in RU) was obtained relative to the response to BSA. Results are depicted in FIG. 5.
(§4) Surface plasmon resonance (SPR) was done to quantify the affinity of specific cytokines to Fg β15-66. […] Method: The methods used above were analogous to those used in Example 5. Fits of the experimental data were made with Langmuir binding kinetics. Results are depicted in FIG. 6.

PlGF-2 = biological target: T4, PlGF-2 (UniProt P49763-3 19-170); test: as above
T4 sequence (looked up): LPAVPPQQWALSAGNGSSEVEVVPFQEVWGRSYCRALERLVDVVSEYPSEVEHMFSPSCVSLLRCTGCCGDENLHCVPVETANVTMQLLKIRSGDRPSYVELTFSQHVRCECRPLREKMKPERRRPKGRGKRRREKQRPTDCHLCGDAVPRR
Protocol: as §3, §4

IGF-BP5 = IGF-BP5 (UniProt P24593 21-272); test: as above
Protocol: as §3, §4

FGF-2 = FGF-2 (UniProt P09038 135-288, limits assumed); test: as above
Protocol: as §3, §4

TGF-β3 = biological target: T5, TGF-β3 (Natural form is a disulfide-linked homodimer; one protomer is given.); test: ELISA: growth factor coated, Fg fragment in solution, A450 (methods analogous to Example 3)
T5 chain: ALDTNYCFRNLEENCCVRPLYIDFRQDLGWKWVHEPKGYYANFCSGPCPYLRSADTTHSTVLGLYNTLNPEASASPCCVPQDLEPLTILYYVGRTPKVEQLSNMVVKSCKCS
Protocol: as §1, §2

PlGF-1 = biological target: T6, PlGF-1 (UniProt P49763-2 19-149); test: as above
T6 sequence (looked up): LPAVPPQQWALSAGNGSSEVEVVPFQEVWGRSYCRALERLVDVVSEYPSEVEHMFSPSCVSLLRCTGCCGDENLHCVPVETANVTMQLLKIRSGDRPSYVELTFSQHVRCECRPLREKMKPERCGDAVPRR
Protocol: as §1, §2

FGF-7 = biological target: T7, FGF-7 (UniProt P21781 32-194); test: as above
T7 sequence (looked up): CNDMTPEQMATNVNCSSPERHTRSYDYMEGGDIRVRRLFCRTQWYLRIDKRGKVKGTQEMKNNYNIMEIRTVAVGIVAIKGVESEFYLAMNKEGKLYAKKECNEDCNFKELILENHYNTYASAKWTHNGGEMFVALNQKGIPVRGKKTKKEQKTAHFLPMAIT
Protocol: as §1, §2

FGF-10 = biological target: T8, FGF-10 (UniProt O15520 38-208); test: as above
T8 sequence (looked up): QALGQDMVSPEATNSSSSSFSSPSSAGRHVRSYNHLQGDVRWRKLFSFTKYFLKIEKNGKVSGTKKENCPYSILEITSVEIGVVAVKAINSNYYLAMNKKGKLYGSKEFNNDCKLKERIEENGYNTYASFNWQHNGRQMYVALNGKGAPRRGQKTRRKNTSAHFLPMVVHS
Protocol: as §1, §2

T3 sequence (P12643 283-396, chain 1 of 2): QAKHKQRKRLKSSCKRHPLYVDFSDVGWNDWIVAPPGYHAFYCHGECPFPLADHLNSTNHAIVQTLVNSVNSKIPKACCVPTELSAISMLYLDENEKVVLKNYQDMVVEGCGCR
T3 sequence (P18075 293-431, chain 2 of 2): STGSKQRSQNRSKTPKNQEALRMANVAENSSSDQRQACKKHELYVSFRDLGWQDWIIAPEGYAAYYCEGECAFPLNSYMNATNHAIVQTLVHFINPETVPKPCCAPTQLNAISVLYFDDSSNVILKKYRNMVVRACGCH
Sequence of IGF-BP5 (P24593 21-272 limits assumed): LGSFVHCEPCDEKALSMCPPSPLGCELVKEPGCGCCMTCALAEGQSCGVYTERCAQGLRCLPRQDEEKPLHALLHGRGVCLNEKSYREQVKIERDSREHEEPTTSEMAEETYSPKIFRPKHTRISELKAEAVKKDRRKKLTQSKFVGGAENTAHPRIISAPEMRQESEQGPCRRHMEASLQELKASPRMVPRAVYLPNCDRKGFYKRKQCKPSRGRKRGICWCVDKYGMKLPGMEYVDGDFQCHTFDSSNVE
Sequence of TGF-β1 (P01137 279-390 limits assumed): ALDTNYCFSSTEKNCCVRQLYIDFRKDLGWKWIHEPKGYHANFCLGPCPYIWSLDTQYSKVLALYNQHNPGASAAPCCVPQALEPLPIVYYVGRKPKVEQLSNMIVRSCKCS
T1 sequence (P01127 82-190 limits assumed, chain 2 of 2, other chains not shown): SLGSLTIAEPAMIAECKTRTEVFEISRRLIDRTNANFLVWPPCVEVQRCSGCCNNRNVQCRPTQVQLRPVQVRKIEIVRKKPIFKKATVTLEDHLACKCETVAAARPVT
Sequence of FGF-2 (P09038 135-288 limits assumed): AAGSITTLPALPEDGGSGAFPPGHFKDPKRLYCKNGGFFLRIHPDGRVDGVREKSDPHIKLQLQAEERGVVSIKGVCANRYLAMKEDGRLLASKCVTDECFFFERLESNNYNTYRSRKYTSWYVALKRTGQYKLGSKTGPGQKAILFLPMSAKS

B1: Fg β15-66 (other)
chain: GSNQEQVSPLGHRPLDKKREEAPSLRPAPPPISGGGYRARPAKAAATQKKVERKAPDAGGCGHHHHHH
notes: Made as a GST fusion; GST was cleaved off; also called TG-Fg β15-66; fibrinogen β15-66 domain
binding result (PDGF-AB): binds | binding result (FGF-5): binds | binding result (BMP-2/7): binds | Kd (TGF-β1): 56.5 nM | Kd (PlGF-2): 1.9 nM | Kd (IGF-BP5): 19.6 nM | Kd (FGF-2): 53 nM | binding result (TGF-β3): no binding | binding result (PlGF-1): no binding | binding result (FGF-7): binds | binding result (FGF-10): binds
